Tested on: specific peptide sequence that is a substrate for MMP-9 (Lys-Gly-Pro-Arg-Ser-Leu-Ser-Gly-Lys)

metalloproteinase-9 (MMP-9)
cleavage of the donor/acceptor-labelled peptide (loss of FRET, colour change): Addition of MMP-9 cleaves the peptide separating donor and acceptor

From patent publication US20140274797
